The source of these data is PMC6405930, “Conservation of the Amyloid Interactome Across Diverse Fibrillar Structures” (Scientific Reports, 2019).

The subject of experiment [1] is T1, FAS4-AD aggregates.
T1 construct: aggregates of a mutated version of the FAS1-4 domain of TGFBIp
Nature of the experiment: Fibril incubation with plasma, quantitative MS/MS of bound proteins. The experiment is classed as binding, human. The arrangement: key to Identification status of plasma protein bound: FAS4-AD: *: Identified, but not quantified; —: Not identified in any of the samples. The following applies: for Identification status of plasma protein bound: FAS4-AD: symbol cells. Here is the method: (§1) Plasma and CSF solutions were centrifuged (40,000 g, 20 min) to remove any aggregates. The protein concentration was determined using 280 nm absorbance assuming 1 Abs = 1 mg/mL. […] Control samples (without fibril material) were prepared similarly. All samples were incubated at room temperature for one hour under gentle agitation. Fibrils and fibril-bound proteins were pelleted by centrifugation at 17,000 g for 30 minutes. The supernatant (175 μL) was removed and the aggregate was re-suspended in 175 μL PBS and pelleted again before further preparation for gel analysis and spin-filter assisted digest for quantitative MS/MS.
(§2) The fibril-protein pellets were transferred to spin-filters (0.22 μm), washed twice in PBS (100 μL) and once in 1 M NaCl (100 μL). The fibrils and fibril-bound proteins were dissolved by one-hour incubation in 100 μL 6 M guanidinium chloride followed by elution from the spin-filter. The eluted proteins were loaded onto a 3 kDa MWCO filter unit for filter-assisted unfolding, reduction, alkylation, and trypsin digestion. In brief, samples were washed twice in 8 M urea, once in 8 M urea with 50 mM DTT, once in 8 M urea with 50 mM iodoaceteamide, and twice in 8 M Urea. The filter units were dried by centrifugation (14,000 g in 30 minutes) after every addition. Trypsin digestion was carried out with 0.25 μg sequencing grade trypsin from Sigma Aldrich in 50 mM ammonium bicarbonate overnight at 37 °C. The tryptic peptides were collected by centrifugation, acidified with TFA (0.1%) and micro-purified using POROS R2 column material (Applied Biosystems) packed in P200 pipette tips (Sarstedt).
(§3) LC-MS/MS analyses were performed on an EASY-nLC II system (Thermo Fisher Scientific) connected to a TripleTOF 5600+ mass spectrometer (Sciex) equipped with a NanoSpray III source (Sciex) and operated under Analyst TF 1.6.0 control.
(§4) The micro-purified tryptic peptides were dissolved in 0.1% formic acid, injected and trapped on an in-house packed trap column (2 cm × 100 μm I.D) with RP ReproSil-Pur C18-AQ 3 μm resin (Dr. Maisch GmbH). Peptides were eluted from the trap column and separated on a 15 cm analytical column (75 μm i.d.) packed in-house in a pulled emitter with RP ReproSil-Pur C18-AQ 3 μm resin (Dr. Maisch GmbH). Elution from the analytical column was performed with a linear gradient from 5% to 35% phase B (90% acetonitrile with 0.1% formic acid) over 20 min for protein identification and 50 min for quantitative analysis, respectively.
(§5) All samples were analysed three times, yielding nine MS/MS experiments for each fibril for both plasma and CSF. For the area-based extracted ion chromatogram (XIC) quantification, the acquisition method was set up as an information-dependent acquisition (IDA) experiment collecting up to 25 MS/MS spectra in each 1.6 sec cycle using an exclusion window of 6 sec.
(§6) XIC quantification was based on the average ion intensity of the three most abundant peptides for each protein. Only proteins quantified in at least four out of nine MS/MS experiments per fibril were included in the quantification. The total ion scores were visualized after grouping the proteins according to function (Figure S11).
(§7) For each MS/MS experiment, the ion intensities of the individual proteins were normalized to the total ion intensity of that MS/MS experiment to achieve a relative protein composition. The contribution of each protein was averaged over all nine MS/MS experiments (Tables 1 and 2).

Experiment [2] has as its target T2, glucagon fibrils (Homo sapiens, UniProt P01275).
T2 construct: fibrils of the peptide hormone glucagon
Nature of the experiment: Fibril incubation with CSF, quantitative MS/MS of bound proteins. As to conditions: 4:1 w/w CSF protein:fibril. Type of experiment: binding.

Experiment [3] has as its target T2, glucagon fibrils. Nature of the experiment: Fibril incubation with plasma, quantitative MS/MS of bound proteins. The following applies: 50:1 w/w plasma protein:fibril. The experiment is classed as binding. The procedure:
as §1, §2, §3, §4, §5, §6, §7

In experiment [4] the target is T3, αSN fibrils (Homo sapiens, UniProt P37840). Nature of the experiment: Fibril incubation with CSF, quantitative MS/MS of bound proteins. Type of experiment: binding. The following applies: symbol cells. The arrangement: key to Identification status of CSF protein bound: αSN: *: Identified, but not quantified; —: Not identified in any of the samples. Here is the method:
as §1, §2, §3, §4, §5, §6, §7

The test system of experiment [5] is T4, Ab1 fibrils.
T4 construct: Synthetic amyloid β peptide 1–40 was purchased from Caslo Aps (Lyngby, Denmark); purchased Caslo Aps (Lyngby, Denmark); host or cells: synthetic peptide
Described as above. The experiment is classed as binding, human. Set-up: key to Identification status of CSF protein bound: Ab1: *: Identified, but not quantified; —: Not identified in any of the samples. As to conditions: symbol cells.

The test system of experiment [6] is T5, Ab2 fibrils.
T5 construct: Two structurally distinct fibrils of the Aβ(1–40) peptide associated with AD
Nature of the experiment: Fibril incubation with plasma, quantitative MS/MS of bound proteins. As to conditions: 50:1 w/w plasma protein:fibril. Type of experiment: binding, human. The procedure: as §1, §2, §3, §4, §5, §6, §7

In experiment [7] the test system is T4, Ab1 fibrils. The description is as above. The experiment is classed as binding, human. The following applies: 50:1 w/w plasma protein:fibril. The procedure:
Plasma and CSF solutions were centrifuged (40,000 g, 20 min) to remove any aggregates. The protein concentration was determined using 280 nm absorbance assuming 1 Abs = 1 mg/mL. […] Control samples (without fibril material) were prepared similarly. All samples were incubated at room temperature for one hour under gentle agitation. Fibrils and fibril-bound proteins were pelleted by centrifugation at 17,000 g for 30 minutes. The supernatant (175 μL) was removed and the aggregate was re-suspended in 175 μL PBS and pelleted again before further preparation for gel analysis and spin-filter assisted digest for quantitative MS/MS.
as §2, §3, §4, §5, §6, §7

Experiment [8] addresses T3, αSN fibrils. The experiment is described as above. The experiment is classed as binding. The arrangement: key to Identification status of plasma protein bound: αSN: *: Identified, but not quantified; —: Not identified in any of the samples. The following applies: for Identification status of plasma protein bound: αSN: symbol cells. The procedure: as §1, §2, §3, §4, §5, §6, §7

The target of experiment [9] is T6, C-36 fibrils (Homo sapiens, UniProt P01009).
T6 construct: the 36 residue C-terminal fragment of α1-antitrypsin (C-36)
The experiment is described as above. As to conditions: 50:1 w/w plasma protein:fibril. Type of experiment: binding. Here is the method: as §1, §2, §3, §4, §5, §6, §7

The test system of experiment [10] is T1, FAS4-AD aggregates. Nature of the experiment: Fibril incubation with CSF, quantitative MS/MS of bound proteins. The experiment is classed as binding, human. The arrangement: key to Identification status of CSF protein bound: FAS4-AD: *: Identified, but not quantified; —: Not identified in any of the samples. The following applies: symbol cells.
Experiment [11] concerns the target T6, C-36 fibrils. Described as above. As to conditions: 4:1 w/w CSF protein:fibril. The experiment is classed as binding.
For experiment [12], the system named is T5, Ab2 fibrils. The description is as above. Type of experiment: binding, human. Set-up: key to Identification status of CSF protein bound: Ab2: *: Identified, but not quantified; —: Not identified in any of the samples. As to conditions: symbol cells.

T6 sequence (P01009 383-418 limits assumed): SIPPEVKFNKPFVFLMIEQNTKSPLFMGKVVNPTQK
T2 sequence (P01275 53-81 limits assumed): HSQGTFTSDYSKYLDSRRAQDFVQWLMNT

B1: Ig α-1 chain C region: plasma/CSF protein bound to fibrils (protein, UniProt P01876 1-398, looked up)
Immunoglobulin heavy constant …: ASPTSPKVFPLSLCSTQPDGNVVIACLVQGFFPQEPLSVTWSESGQGVTARNFPPSQDASGDLYTTSSQLTLPATQCLAGKSVTCHVKHYTNPSQDVTVPCPVPSTPPTPSPSTPPTPSPSCCHPRLSLHRPALEDLLLGSEANLTCTLTGLRDASGVTFTWTPSSGKSAVQGPPERDLCGCYSVSSVLPGCAEPWNHGKTFTCTAAYPESKTPLTATLSKSGNTFRPEVHLLPPPSEELALNELVTLTCLARGFSPKDVLVRWLQGSQELPREKYLTWASRQEPSQGTTTFAVTSILRVAAEDWKKGDTFSCMVGHEALPLAFTQKTIDRLADWQMPPPYVVLDLPQETLEEETPGANLWPTTITFLTLFLLSLFYSTALTVTSVRGPSGNREGPQY
As to B1, the “Relative composition of plasma proteins bound: FAS4-AD” value in [1] (50:1 w/w plasma protein:fibril) is reported as 3.9 ± 1.6 % of total protein. In experiment [2], the “Relative composition of CSF proteins bound: Glucagon” value is given as 0.2 ± 0.1 % of total protein. Besides, the “Relative composition of plasma proteins bound: Glucagon” value in experiment [3] was 1.7 ± 0.0 % of total protein. The “Identification status of CSF protein bound: αSN” value in experiment [4] was “—”. Also, the “Identification status of CSF protein bound: Ab1” value in experiment [5] was “*”. Further, in experiment [6], the “Relative composition of plasma proteins bound: Ab2” value is 1.3 ± 0.3 % of total protein. Further, the “Relative composition of plasma proteins bound: Ab1” value in [7] was 1.3 ± 0.1 % of total protein. For the same molecule, the “Relative composition of plasma proteins bound: αSN” value in experiment [8] (50:1 w/w plasma protein:fibril) is given as 0.9 ± 0.3 % of total protein. For the same molecule, the “Relative composition of plasma proteins bound: C-36” value in experiment [9] is reported as 1.4 ± 0.4 % of total protein. In addition, the “Identification status of CSF protein bound: FAS4-AD” value in [10] is on record as “—”. The “Relative composition of CSF proteins bound: C-36” value in experiment [11] is reported as 0.5 ± 0.1 % of total protein. Further, the “Identification status of CSF protein bound: Ab2” value in [12] is on record as “*”.

B2: Complement C1r subcomponent: plasma protein bound to fibrils (protein, UniProt P00736 18-705, looked up)
Complement C1r subcomponent: SIPIPQKLFGEVTSPLFPKPYPNNFETTTVITVPTGYRVKLVFQQFDLEPSEGCFYDYVKISADKKSLGRFCGQLGSPLGNPPGKKEFMSQGNKMLLTFHTDFSNEENGTIMFYKGFLAYYQAVDLDECASRSKSGEEDPQPQCQHLCHNYVGGYFCSCRPGYELQEDTHSCQAECSSELYTEASGYISSLEYPRSYPPDLRCNYSIRVERGLTLHLKFLEPFDIDDHQQVHCPYDQLQIYANGKNIGEFCGKQRPPDLDTSSNAVDLLFFTDESGDSRGWKLRYTTEIIKCPQPKTLDEFTIIQNLQPQYQFRDYFIATCKQGYQLIEGNQVLHSFTAVCQDDGTWHRAMPRCKIKDCGQPRNLPNGDFRYTTTMGVNTYKARIQYYCHEPYYKMQTRAGSRESEQGVYTCTAQGIWKNEQKGEKIPRCLPVCGKPVNPVEQRQRIIGGQKAKMGNFPWQVFTNIHGRGGGALLGDRWILTAAHTLYPKEHEAQSNASLDVFLGHTNVEELMKLGNHPIRRVSVHPDYRQDESYNFEGDIALLELENSVTLGPNLLPICLPDNDTFYDLGLMGYVSGFGVMEEKIAHDLRFVRLPVANPQACENWLRGKNRMDVFSQNMFCAGHPSLKQDACQGDSGGVFAVRDPNTDRWVATGIVSWGIGCSRGYGFYTKVLNYVDWIKKEMEEED
Turning to B2, the “Identification status of plasma protein bound: FAS4-AD” value in experiment [1] was “—”. For the same molecule, the “Relative composition of plasma proteins bound: Glucagon” value in experiment [3] is listed as 0.1 ± 0.0 % of total protein. Also, the “Relative composition of plasma proteins bound: Ab2” value in experiment [6] is listed as 0.4 ± 0.1 % of total protein. In addition, the “Relative composition of plasma proteins bound: Ab1” value in experiment [7] is on record as 0.2 ± 0.0 % of total protein. In experiment [8], the “Identification status of plasma protein bound: αSN” value is listed as “*”. For the same molecule, the “Relative composition of plasma proteins bound: C-36” value in experiment [9] is given as 0.3 ± 0.1 % of total protein.

B3: Inter-α-trypsin inhibitor heavy chain H2: plasma protein bound to fibrils (protein, UniProt P19823 55-702, looked up)
Inter-alpha-trypsin inhibitor …: SLPGESEEMMEEVDQVTLYSYKVQSTITSRMATTMIQSKVVNNSPQPQNVVFDVQIPKGAFISNFSMTVDGKTFRSSIKEKTVGRALYAQARAKGKTAGLVRSSALDMENFRTEVNVLPGAKVQFELHYQEVKWRKLGSYEHRIYLQPGRLAKHLEVDVWVIEPQGLRFLHVPDTFEGHFDGVPVISKGQQKAHVSFKPTVAQQRICPNCRETAVDGELVVLYDVKREEKAGELEVFNGYFVHFFAPDNLDPIPKNILFVIDVSGSMWGVKMKQTVEAMKTILDDLRAEDHFSVIDFNQNIRTWRNDLISATKTQVADAKRYIEKIQPSGGTNINEALLRAIFILNEANNLGLLDPNSVSLIILVSDGDPTVGELKLSKIQKNVKENIQDNISLFSLGMGFDVDYDFLKRLSNENHGIAQRIYGNQDTSSQLKKFYNQVSTPLLRNVQFNYPHTSVTDVTQNNFHNYFGGSEIVVAGKFDPAKLDQIESVITATSANTQLVLETLAQMDDLQDFLSKDKHADPDFTRKLWAYLTINQLLAERSLAPTAAAKRRITRSILQMSLDHHIVTPLTSLVIENEAGDERMLADAPPQDPSCCSGALYYGSKVVPDSTPSWANPSPTPVISMLAQGSQVLESTPPPHVMRVEND
As for B3, the “Identification status of plasma protein bound: FAS4-AD” value in experiment [1] is listed as “—”. In addition, in [3], the “Relative composition of plasma proteins bound: Glucagon” value is given as 2.7 ± 0.2 % of total protein. Also, the “Relative composition of plasma proteins bound: Ab2” value in [6] was 0.1 ± 0.0 % of total protein. Moreover, the “Relative composition of plasma proteins bound: Ab1” value in experiment [7] is 0.1 ± 0.0 % of total protein. The “Identification status of plasma protein bound: αSN” value in experiment [8] is recorded as “*”. Moreover, the “Relative composition of plasma proteins bound: C-36” value in experiment [9] is on record as 0.3 ± 0.1 % of total protein.
